Measured values as given in the nanobody polyreactivity screen of Harvey et al. (2022).

assay: yeast display, Sf9 membrane polyspecificity reagent, FACS + sequencing; frameworks hold sequencing errors
How it was run: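 Sorting gates, low and high (top ~1%), were placed on anti-HA fluorescence to track expression and on streptavidin fluorescence to track reagent binding. A clone's polyreactivity label is taken from the gate it came out of. The reagent was 10% biotinylated, detergent-solubilized Sf9 membrane, applied for 1 hour at 4 °C to galactose-induced yeast display cells.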

Sequence	polyreactivity (PSR sort gate)
QFQLEESGRGLVQAGGSLRLSCAASGRIFRYYAMGWYRQAPGKERELVAGISWRGSSTYYADSVKGRFTISRDNAKNTVYLQMNSLKPEDTAVYYCAARKASGRFGYWGQGTQVTVSS	high polyreactivity
QFQLEESRRGLDQAGGSLRLSCAASGSIFTLYDMGWYRQAPGKERELVAAITSGGSTDYADSVKGRFTISRDKAKNTVFLQMNSLKPEDTAVYYCAADTFYIYEDVLYVQGDYYWGQGTQVTVSS	low polyreactivity
QFQLGESVGGLVQAGGSLRLSCAGYGSIFLGKAMGWYREATGKEMEFVDAIRISGGSTYYADSVKGRFTISRDNAQYTVYIQMNILKPEDTAVYYCAKFGPRASLYRTGRYYWGQGTQVTVSS	high polyreactivity
QFQLLESGRGLVQAGGSLRLSCAASGRTYNVNAMGWYRKAPGKERELVASISSGTSTNYADSVKGRFTITRDNAKNTVYLQLNRLNREDTAVYYCNADFVWNGYSGRIRDYYWGQATQVTVSS	low polyreactivity
QFQLVDSGGGLVQAGGSLSLICAASGLIFYTYAMGWYRQAPGKERELVAAISRTRVSTYYADSVKGRFTISRDNAKNTVYLQMNSLKPEYTAVYYCATSRYLKLGYDYWGQGTQVTVSS	high polyreactivity
QFQLVDSGGSLVQAGSSLPLSCPASGRTFPYNVMGWYRQAPGKERELFASIDGSGGSTYYADSVKGRFTISRDYAKNTVYLQMNSLNPVDTAVYYCAAVYYQSGNYWYGYLGQSPYDYWGLGTQVTVSS	low polyreactivity
QFQLVEAGGGLVQAGGSLRLSCAASGSIFTYAMGWYRQAPGKEREFVAAISRSGGRTYYADSVKGRFTMSRDNAKNTVYFQMNSLKPDDTAVYYCAPLLLKDYDYWGQGTQVTVSS	low polyreactivity
QFQLVESGGGLDQAGGSLRLSCAASGITVYYYALGCYRQAPGKERELVAAITSSGGSTYYADSVKGRFTISRDNAKNTVYLQMNSLKPEDTAVYYCAARSYRGSSTYQGHGYWGQGTQVTVSS	high polyreactivity
QFQLVESGGGLDQAGGSLRLSCAASGSIFSYYDMGGDRQAPGKDRELVAGNSRGGSTNYADSVKGRFTISRDNAKKTVYLQMNSLKPEDTAVYYCNADQSSRTYPFRLSRRSWLYGYWGQGTQVTVSS	low polyreactivity
QFQLVESGGGLDQARGSLRLTCAASGSIFARNAMGWYRQAPGKERELVAAITYSGGNTYYADSVKGRFTISRDNAKNTVYLQMNSLKPEDTAVYYCNKDWYPTYAAYNYYYWGQGTQVTVSS	high polyreactivity
QFQLVESGGGLFQAGARLRLSSAASGNIFNWYALGLYRQAPGKEREFVACISTSGGSTYYADSVKGRFTISRDNAKNSVYLQMNSLKPEDTAVYYCNAKFFVYECLPGPSYWYDYWGQGTQVTVSS	high polyreactivity
QFQLVESGGGLFQAGGILRLSCAASGRNFLYNAMGWDRQAPGKERELVAAISSRGARTYYADSVKGRFTISRDNAKNTVYFQMNSLKPEDTAVYYCATDSYRYDGIQYLYEYYYWGQGTQVTVSS	high polyreactivity
QFQLVESGGGLLQAGGSLRLSCAASGSTFYRYVMGWYRQATGKERELVAAITWRGGTTYYADSVKGRFTISRDNAKNTVYLKMISLKPDDTAVYYCNADRGGLRWFWQVLYDYWGQGTQVTVSS	low polyreactivity
QFQLVESGGGLVQAGGSHRLICAASGRTFPYYAKGWYRQAPGKERELVATINTGTSTNYADSVKGRFTISRDNANNTVYLQMHSLKPEDTAVYYCAAATTYGKSEYDYWGQGTQVTVSS	high polyreactivity
QFQLVESGGGLVQAGGSLGLSCAASGRSFAQYTMGWYRQAPGKERELVAAISWSGTSTYYADSVKGRFTISRDNAKNTVSLQMNSLKPEDTAVYYCAALGRYSVEYGYWGQGTQVTVSS	high polyreactivity
QFQLVESGGGLVQAGGSLRISCAASGSIFRRYAMGWYRQAPWKERELVATISSGTTTNYADSVKGRFTISRDNANNSVYLQLNSLKPEDTSVFYCAAVVYGHIRGPGERKSYWGQGTQVTVSS	high polyreactivity
QFQLVESGGGLVQAGGSLRISCDASGRTFWYYTMGWYRKAPGKERELVASITYRGGSTYYADSVKGRFTISRDNAKNTVYLQMNSLKPEDTAVYYCNKPYFTASGDRFGYWGQGTQVTVSS	low polyreactivity
QFQLVESGGGLVQAGGSLRLSCAASAGNFNRYAMGWYRQAPGKEMELVAAISSSGGPTYYADSVKGRFTISRDNAKNTVYLQMNSLKPEDSAVYYCNARYPRLHRTYNYWGQGTQVTVSS	high polyreactivity
QFQLVESGGGLVQAGGSLRLSCAASARTFVSNAMGWDRQAPGKERELVADITSGGSTDYADSVKGRFTSSRDNAKNTVYVQMNSVKPEDTAVSYCATDLWRWYGWFDYWGQGTQVTVSS	low polyreactivity
QFQLVESGGGLVQAGGSLRLSCAASASTYYYYVMGWSIQAPVKEREVVAAITRSTGSTYYADSVKGRFTISRDNAKNTVYLNKNSLKPEETSVYYCAAEGPKWYYSGAFDYWGQGSQVTVSS	low polyreactivity
QFQLVESGGGLVQAGGSLRLSCAASGFIFTNVMGWYRQSPGKERELVAAISGRGTSTYYADSVKGRFTISRDNAKNTVYLQMNSLKPEDTAVYYCAAYFTSRLDYWGQGTQVTVSS	high polyreactivity
QFQLVESGGGLVQAGGSLRLSCAASGIISSVYAMGWYRQAPGKERELVAAISGSGGSTYYADSVKGRFTISRDNAKNTVYLQMNSLKPEDTAVYYCAKGYQYQGNSYGYWGQGTQVTVSS	low polyreactivity

Sequence	polyreactivity (PSR sort gate)
QFQLVESGGGLVQAGGSLRLSCAASGITFDVNAMGCYIQAPGKERELVASITAGGNTYYSDSVKGRFTISRDNAKNTVYLQMNSLKPVDTAVYFCAAVSTSLYCAGYDYWGQGTQVTVSS	low polyreactivity
QFQLVESGGGLVQAGGSLRLSCAASGITFGDNAMGWYRQAPGKERELVAAISWSGDRTFYADSVKGRFTISRDNAKNTVYLQMNSLKPEDTAVYYCNAEIGWHNEGRLSTYDYWGQGTQVTVSS	low polyreactivity
QFQLVESGGGLVQAGGSLRLSCAASGITFRAYAMGWYRQAPGKERELVAAITGRFGRTYYADSVKGRFTISRDNENNSVYLQMNSLKPEDTAVYYCNAYLWRVTQTYDYWGQGTQVTVSS	high polyreactivity
QFQLVESGGGLVQAGGSLRLSCAASGLIFVYNDMGWYRQAPGKETELVAGITGTGGNTYYADSVKGRFTISRDNEKNTVYLQMNSLKPEDTAVYYCAASHTSYYLRYGYWGQGTQVTVSS	high polyreactivity
QFQLVESGGGLVQAGGSLRLSCAASGLTFYAYARGWYRQAPGKDSELVAAISSGGSTSYADSVKGRFTISRDNAKYTVYLQMNSLKPEDTAVYYCAARPISSRFFGWGYNYWGQGTQVTVSS	high polyreactivity
QFQLVESGGGLVQAGGSLRLSCAASGRIFDVNAMGWSRQAPGKESELVAAISTRGGGTYYADSVKGRFTISRDNAKNTVYLQMTSLKPEDTAVYYCNVVRRYGGRGIDYWGQGTQVTVSS	low polyreactivity
QFQLVESGGGLVQAGGSLRLSCAASGRIFGVYAMGWYRQAPVKERQLVATISLSAGRTYYADSVKGRFTISRDNAKNTVYLQMNSLKPEDTAVYYCAAQSNYSIRRHYYTFRYSYDYWGQGTQVTVSS	high polyreactivity
QFQLVESGGGLVQAGGSLRLSCAASGRIFSHYAMGCYRQAPGKERELVAAISSGGITYYADSVNGRFTISRDNAKNTVYLQRNSLKPEDTAVYYCAAVRRRGTTYDYWGQGTQVTVSS	high polyreactivity
QFQLVESGGGLVQAGGSLRLSCAASGRILSGNAMGWYRQAPGKERELVAAITNAGITKYADSVKGRFTISRDNAKNTVYLQMNSLKPEDTAVYYCATDRYAYNLYDYWGQGTQVTVSS	low polyreactivity
QFQLVESGGGLVQAGGSLRLSCAASGRTFSGNTMGWYRQAPGKERELVAAITGRGGSTYYADSVKGRFTISRDNAKNTVYLQMNCLKPEDTAVYYCAALRYTFAGRFDYWGQGTQVTVSS	high polyreactivity
QFQLVESGGGLVQAGGSLRLSCAASGRTFWNYAMGWYRQAPGKERELVAAISVTGTNTYYADSVKGRFTISRDNAKNTVYLQMNSLKPEDTAVYYCAARGRPGLYYWGQGTQVTVSS	high polyreactivity
QFQLVESGGGLVQAGGSLRLSCAASGRTLHGYTMGWYRQAPGKVREFVATISSIGGSTYYADSVKGRFTISRDNAKNTVYLQMNSLKPEDTAVYYCNRGRARVIFSGMDYWGQGTQVTVSS	low polyreactivity
QFQLVESGGGLVQAGGSLRLSCAASGRTYRYTMGWSRHAPGKERELVAAISRSGGSTYYADSVKGRFTISRDNAKTTVYLQMNSLIPEDTAVYYCAKVIYRYNETYDYWGQGTQVTVSS	high polyreactivity
QFQLVESGGGLVQAGGSLRLSCAASGSIFANALGWYRQAPRKERELVAAISFSGGRTFYADSVKGRFTISRDNAKNTVYLQMNSLKPDDTTVYYCNKDYWGYFSYWKSYLYDYWGQGTQVTVSS	high polyreactivity
QFQLVESGGGLVQAGGSLRLSCAASGSIFDGNAMGWYRQAPGKERELVAAISRRGGSTYYADSVKGRFTISRYNAKNTVYLQMNSLKPEDTAVYYCNAYLSYFDGNYWGQGTQVTVSS	high polyreactivity
QFQLVESGGGLVQAGGSLRLSCAASGSIFELNAKGLYRTAPGKERELVAAITSSGSSTYYADSVKGRFTISRDNAKNTVYLQMNRLKPEDTAVYYCFRPHDYWGQGTQVTESS	low polyreactivity
QFQLVESGGGLVQAGGSLRLSCAASGSTFGVNAMGWYRQAPGKERELVAAISSSGSSTYADSVKGRFTISRDNAKNTVYLQMNSLKPEDTAVYYCNKTTLLTVEYDYWGQGTQVTVSS	low polyreactivity
QFQLVESGGGLVQAGGSLRLSCAASGSTFGVYAMGWYRQAPGKERELVATINSGGSTNYADSVKGLFTISRDNAKNTVYLQMNSLKPEDTAVYYCAAGPFWQDFYVYEYDYWGQGTQVTVSS	low polyreactivity
QFQLVESGGGLVQAGGSLRLSCAASGSTFRRNTMGWYRQAPGKEREFVAAISRRGGSTYYADSVKGRFTISRDNAKNTVYLQMNRLKPEDTAVYYCAAPGLSRLYNVYYWPYDYWGQGTQVTVSS	high polyreactivity
QFQLVESGGGLVQAGGSLRLSCAASGSTFSANAMGWYRQAPGKERELVASISRRGGSTYYADSVKGRFTISRDIAKNTVYLQMNSLKPEDTAVYYCNKRFARQGSPSEYGRSQIGYYYWGQGTQVTVSS	high polyreactivity
QFQLVESGGGLVQAGGSLRLSCAASGSTFTANAMGWYRQSPGKERELVAAITNSDGSTYYADSVKGRFTISRDNAKNTVYLQMNSLKPEDTAVYYCAKDYYACYWEMDYWGQGTQVTVSS	low polyreactivity
